± gives the standard deviation of the averaged measurements.
Assays:
Saccharomyces cerevisiae [1] = test: protein stability index of tFT-peptide fusion (C-terminal peptide) (PSI (0-1 scale)); higher = more stable (slower turnover)
Description: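 MPS profiling in S. cerevisiae of the tFT-X12 degron library: putative degron peptides plus stable controls, 12 aa, fused to the C-terminus of a sfGFP-mCherry timer. Cells are FACS-sorted into 8 mCherry/sfGFP bins and deep-sequenced. PSI runs from 0 (unstable) to 1 (stable). Backgrounds are wild type, das1Δ and doa10Δ at 30 °C, and wild type, das1Δ, cdc34-1 and cdc53-1 at 37 °C; 2-3 technical replicates each.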

Saccharomyces cerevisiae [2] = test: as above; details: genetic background: wild type; temperature: 30 C
[3] = genetic background: cdc34-1, temperature: 37 C
[4] = genetic background: cdc53-1, temperature: 37 C
[5] = genetic background: das1 deletion, temperature: 30 C
[6] = genetic background: das1 deletion, temperature: 37 C
[7] = genetic background: doa10 deletion, temperature: 30 C
[8] = genetic background: wild type, temperature: 30 C
[9] = genetic background: wild type, temperature: 37 C
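Note: PSI is a weighted mean of sequencing reads over stability bins, variants kept only with over 10 reads, mCherry proximal and sfGFP distal, peptide attached via GGGS linker.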

Row | Sequence | protein stability index (Saccharomyces cerevisiae [1]; [3]) | protein stability index (Saccharomyces cerevisiae [1]; [4]) | protein stability index (Saccharomyces cerevisiae [1]; [5]) | protein stability index (Saccharomyces cerevisiae [1]; [6]) | protein stability index (Saccharomyces cerevisiae [1]; [7]) | protein stability index (Saccharomyces cerevisiae [1]; [8]) | protein stability index (Saccharomyces cerevisiae [1]; [9]) | protein stability index (Saccharomyces cerevisiae [2])
1 | PPPPPSRPFSPP | 0.698 ± 0.042 | 0.7412 ± 0.0017 | 0.687 ± 0.0079 | 0.71 ± 0.024 | 0.689 ± 0.0074 | 0.6544 ± 0.0037 | 0.709 ± 0.013 | 0.502 ± 0.015
2 | PCTFYLFWMFFV | 0.4168 ± 0.0038 | 0.565 ± 0.042 | 0.43 ± 0.018 | 0.6011 ± 0.0014 | 0.223 ± 0.011 | 0.228 ± 0.021 | 0.328 ± 0.0081 | 0.3041 ± 0.002
3 | SSLLPLLAQLVG | 0.594 ± 0.046 | 0.7484 ± 0.0013 | 0.581 ± 0.05 | 0.68255 ± 0.00041 | 0.252 ± 0.014 | 0.265 ± 0.039 | 0.411 ± 0.01 | 0.406 ± 0.05
4 | SLRSLYLLARLS | 0.518 ± 0.061 | 0.689 ± 0.047 | 0.636 ± 0.033 | 0.732 ± 0.012 | 0.076 ± 0.017 | 0.0777 ± 0.024 | 0.0971 ± 0.015 | 0.194 ± 0.021
5 | VPSMSIVWCRVL | 0.383 ± 0.036 | 0.446 ± 0.0055 | 0.417 ± 0.02 | 0.511 ± 0.01 | 0.168 ± 0.01 | 0.123 ± 0.018 | 0.12 ± 0.005 | 0.213 ± 0.048
6 | CVFVRCVDCMSG | 0.553 ± 0.013 | 0.544 ± 0.041 | 0.384 ± 0.031 | 0.594 ± 0.0081 | 0.354 ± 0.034 | 0.387 ± 0.015 | 0.579 ± 0.0085 | 0.465 ± 0.024
7 | FYSLVQAWSKAP | 0.721 ± 0.037 | 0.715 ± 0.01 | 0.648 ± 0.012 | 0.727 ± 0.021 | 0.3898 ± 0.0019 | 0.415 ± 0.027 | 0.627 ± 0.018 | 0.501 ± 0.018
8 | QRTNTIINKRIV | 0.704 ± 0.036 | 0.753 ± 0.016 | 0.623 ± 0.028 | 0.736 ± 0.012 | 0.478 ± 0.03 | 0.477 ± 0.028 | 0.705 ± 0.041 | 0.565 ± 0.096
9 | FRVILISACESV | 0.565 ± 0.016 | 0.582 ± 0.011 | 0.403 ± 0.032 | 0.5562 ± 0.0034 | 0.384 ± 0.032 | 0.397 ± 0.019 | 0.5385 ± 0.004 | 0.464 ± 0.0071
10 | FRDRFLRWNLVS | 0.481 ± 0.073 | 0.676 ± 0.013 | 0.6489 ± 0.0058 | 0.757 ± 0.025 | 0.129 ± 0.026 | 0.14 ± 0.025 | 0.21 ± 0.02 | 0.223 ± 0.022
11 | ICSRCLVTVLSC | 0.4098 ± 0.0039 | 0.445 ± 0.0063 | 0.296 ± 0.037 | 0.514 ± 0.0071 | 0.198 ± 0.0024 | 0.217 ± 0.039 | 0.367 ± 0.015 | 0.311 ± 0.017
12 | LSFLSLIFSICY | 0.43162 ± 0.0004 | 0.449 ± 0.054 | 0.356 ± 0.021 | 0.526 ± 0.066 | 0.355 ± 0.0012 | 0.333 ± 0.037 | 0.474 ± 0.012 | 0.461 ± 0.022
13 | YLFPHVRPKFPG | 0.693 ± 0.042 | 0.747 ± 0.014 | 0.658 ± 0.019 | 0.7316 ± 0.0071 | 0.667 ± 0.0085 | 0.664 ± 0.016 | 0.721 ± 0.015 | 0.488 ± 0.091
14 | VTFCFLFVWFLV | 0.269 ± 0.004 | 0.378 ± 0.018 | 0.27 ± 0.028 | 0.413 ± 0.0092 | 0.23 ± 0.015 | 0.226 ± 0.012 | 0.345 ± 0.013 | 0.283 ± 0.048
15 | GSITFFKMVQSG | 0.656 ± 0.021 | 0.748 ± 0.012 | 0.622 ± 0.021 | 0.744 ± 0.012 | 0.376 ± 0.014 | 0.417 ± 0.028 | 0.687 ± 0.011 | 0.469 ± 0.023
16 | ASSFYVDLVLVS | 0.457 ± 0.014 | 0.464 ± 0.024 | 0.341 ± 0.034 | 0.516 ± 0.013 | 0.286 ± 0.0084 | 0.327 ± 0.046 | 0.484 ± 0.0065 | 0.447 ± 0.0094
17 | GTEFSNVITYLV | 0.713 ± 0.018 | 0.758 ± 0.018 | 0.6288 ± 0.003 | 0.775 ± 0.021 | 0.34 ± 0.0043 | 0.389 ± 0.027 | 0.6103 ± 0.0027 | 0.493 ± 0.08
18 | GTRAGNPDRQRS | 0.678 ± 0.052 | 0.759 ± 0.011 | 0.638 ± 0.034 | 0.714 ± 0.025 | 0.656 ± 0.021 | 0.632 ± 0.022 | 0.706 ± 0.016 | 0.706 ± 0.013
19 | GKWVWSSFVWFG | 0.457 ± 0.033 | 0.541 ± 0.011 | 0.509 ± 0.023 | 0.674 ± 0.03 | 0.0899 ± 0.0064 | 0.0965 ± 0.021 | 0.0945 ± 0.0042 | 0.19 ± 0.0062
20 | HPLYWRCVVVLN | 0.213 ± 0.034 | 0.243 ± 0.024 | 0.211 ± 0.026 | 0.3733 ± 0.00077 | 0.073 ± 0.012 | 0.066 ± 0.031 | 0.0862 ± 0.015 | 0.15 ± 0.044

Row | Sequence | protein stability index (Saccharomyces cerevisiae [1]; [3]) | protein stability index (Saccharomyces cerevisiae [1]; [4]) | protein stability index (Saccharomyces cerevisiae [1]; [5]) | protein stability index (Saccharomyces cerevisiae [1]; [6]) | protein stability index (Saccharomyces cerevisiae [1]; [7]) | protein stability index (Saccharomyces cerevisiae [1]; [8]) | protein stability index (Saccharomyces cerevisiae [1]; [9]) | protein stability index (Saccharomyces cerevisiae [2])
21 | FSFPAFTFIVSI | 0.352 ± 0.03 | 0.346 ± 0.006 | 0.336 ± 0.024 | 0.475 ± 0.024 | 0.502 ± 0.031 | 0.329 ± 0.0099 | 0.447 ± 0.035 | 0.4357 ± 0.0022
22 | ISVSVVFFVLRF | 0.27578 ± 0.00014 | 0.369 ± 0.031 | 0.265 ± 0.041 | 0.429 ± 0.015 | 0.294 ± 0.017 | 0.279 ± 0.019 | 0.411 ± 0.011 | 0.3965 ± 0.0021
23 | LSLCPVHRLLVL | 0.558 ± 0.02 | 0.632 ± 0.032 | 0.481 ± 0.025 | 0.624 ± 0.007 | 0.358 ± 0.0063 | 0.379 ± 0.034 | 0.5327 ± 0.0015 | 0.498 ± 0.03
24 | PPSRVSIRLLIR | 0.446 ± 0.025 | 0.473 ± 0.0095 | 0.362 ± 0.021 | 0.461 ± 0.0062 | 0.374 ± 0.0089 | 0.371 ± 0.0086 | 0.448 ± 0.013 | 0.4017 ± 0.0039
25 | VAFLWVAFCFSG | 0.205 ± 0.0023 | 0.355 ± 0.044 | 0.224 ± 0.03 | 0.3883 ± 0.0035 | 0.178 ± 0.019 | 0.203 ± 0.016 | 0.366 ± 0.021 | 0.276 ± 0.046
26 | IGSARIKLLCYH | 0.6024 ± 0.0044 | 0.705 ± 0.014 | 0.592 ± 0.017 | 0.7434 ± 0.0024 | 0.124 ± 0.017 | 0.165 ± 0.027 | 0.331 ± 0.031 | 0.213 ± 0.0061
27 | FLVPLSPMLLSA | 0.446 ± 0.011 | 0.451 ± 0.005 | 0.375 ± 0.031 | 0.4942 ± 0.0011 | 0.323 ± 0.012 | 0.347 ± 0.019 | 0.463 ± 0.014 | 0.4 ± 0.019
28 | LPLQPPPPVCLP | 0.65583 ± 3.7e-05 | 0.7163 ± 0.0065 | 0.629 ± 0.024 | 0.7199 ± 0.0036 | 0.634 ± 0.031 | 0.644 ± 0.018 | 0.69 ± 0.011 | 0.376 ± 0.022
29 | HVRLRFQPVLFV | 0.527 ± 0.027 | 0.5455 ± 0.0014 | 0.404 ± 0.029 | 0.5487 ± 0.0044 | 0.356 ± 0.01 | 0.382 ± 0.026 | 0.5139 ± 0.0024 | 0.462 ± 0.0049
30 | WEISNFFGCFIG | 0.671 ± 0.031 | 0.758 ± 0.026 | 0.683 ± 0.044 | 0.772 ± 0.017 | 0.325 ± 0.0037 | 0.365 ± 0.01 | 0.552 ± 0.071 | 0.428 ± 0.028
31 | LFWTLSKYLIIC | 0.284 ± 0.015 | 0.42 ± 0.024 | 0.34 ± 0.04 | 0.491 ± 0.011 | 0.0759 ± 0.0053 | 0.108 ± 0.013 | 0.159 ± 0.083 | 0.135 ± 0.079
32 | YFFFYFFLLFHL | 0.265 ± 0.051 | 0.272 ± 0.036 | 0.332 ± 0.034 | 0.45 ± 0.045 | 0.416 ± 0.015 | 0.3115 ± 0.0019 | 0.429 ± 0.037 | 0.375 ± 0.071
33 | FPPFALLLIIND | 0.475 ± 0.015 | 0.54 ± 0.039 | 0.396 ± 0.023 | 0.581 ± 0.058 | 0.415 ± 0.0098 | 0.421 ± 0.029 | 0.525 ± 0.0097 | 0.406 ± 0.089
34 | LCGYVGVVVCLV | 0.282 ± 0.012 | 0.307 ± 0.027 | 0.243 ± 0.029 | 0.433 ± 0.0061 | 0.175 ± 0.0034 | 0.209 ± 0.021 | 0.352 ± 0.015 | 0.307 ± 0.019
35 | VGVVLWWVVLMV | 0.118 ± 0.014 | 0.181 ± 0.0027 | 0.184 ± 0.024 | 0.28 ± 0.0034 | 0.154 ± 0.012 | 0.16 ± 0.029 | 0.251 ± 0.0034 | 0.241 ± 0.017
36 | RSLSFGMVLCYS | 0.358 ± 0.027 | 0.366 ± 0.0079 | 0.248 ± 0.041 | 0.4382 ± 0.0025 | 0.228 ± 0.012 | 0.253 ± 0.028 | 0.401 ± 0.012 | 0.343 ± 0.029
37 | GRRPVVDFLPCL | 0.692 ± 0.045 | 0.7222 ± 0.004 | 0.697 ± 0.029 | 0.745 ± 0.009 | 0.7146 ± 0.0027 | 0.719 ± 0.037 | 0.742 ± 0.023 | 0.736 ± 0.0074
38 | CLWLRCIVSILP | 0.121 ± 0.0082 | 0.248 ± 0.0081 | 0.184 ± 0.028 | 0.321 ± 0.01 | 0.16 ± 0.0074 | 0.168 ± 0.025 | 0.30428 ± 0.00014 | 0.239 ± 0.034
39 | RKFRAWIRITRT | 0.627 ± 0.042 | 0.725 ± 0.031 | 0.635 ± 0.022 | 0.71526 ± 0.00022 | 0.219 ± 0.01 | 0.247 ± 0.048 | 0.471 ± 0.025 | 0.377 ± 0.013

— the supplement of paper PMC10724198
